Measured values as given in publication PMC5591402, “Facile Affinity Maturation of Antibody Variable Domains Using Natural Diversity Mutagenesis” (Frontiers in Immunology, 2017).
Where a chain is given by its changes, count along the chain named. Where no end group is shown, it is not given here.

T1: TAMRA-labeled α-synuclein peptide (Homo sapiens, also: TAMRA fluorophore, position not given here)
T1 construct: the TAMRA peptide is called the α-synuclein peptide; also called C-terminal α-synuclein peptide; antigen; source: synthetic peptide, bought: Genemed Synthesis Inc
T1 chain: GYQDYEPEA

B1: N2 VHH alanine mutant V55 (VHH)
VHH: QGQLVESGGGSVQAGGSLRLSCAASGIDSSSYCMGWFRQRPGKEREGVARINGLGGAKTAYADSVKDRFTISRDNAENTVYLQMNSLKPEDTAIYYCAAKFSPGYCGGSWSNFGYWGQGTQVTVSS
notes: PDB 2X6M) with the stated change; Kabat numbering
B2: N2 VHH alanine mutant G100c (VHH)
VHH: B1 VHH with A57V, G108A
notes: as for B1
B3: N2 VHH alanine mutant G100b (VHH)
VHH: B1 VHH with A57V, G107A
notes: as for B1
B4: N2 VHH alanine mutant L52b (VHH)
VHH: B1 VHH with L54A, A57V
notes: as for B1
B5: N2 VHH alanine mutant F96 (VHH)
VHH: B1 VHH with A57V, F101A
notes: as for B1
B6: N2 VHH alanine mutant S100f (VHH)
VHH: B1 VHH with A57V, S111A
notes: as for B1
B7: N2 VHH alanine mutant S100d (VHH)
VHH: B1 VHH with A57V, S109A
notes: as for B1
B8: N2 VHH alanine mutant G99 (VHH)
VHH: B1 VHH with A57V, G104A
notes: as for B1
B9: N2 VHH alanine mutant N100g (VHH)
VHH: B1 VHH with A57V, N112A
notes: as for B1
B10: N2 VHH alanine mutant S97 (VHH)
VHH: B1 VHH with A57V, S102A
notes: as for B1
B11: N2 VHH alanine mutant G53 (VHH)
VHH: B1 VHH with G55A, A57V
notes: as for B1
B12: wild-type N2 VHH antibody (VHH)
VHH: B1 VHH with A57V
notes: also called NbSyn2; wild-type N2 variable domain; not shown: His6, C-terminal, kept
B13: N2.17 reversion mutant L52b (VHH)
VHH: B1 VHH with A57V, F101S, S109T, S111F
notes: as the VHH chain of m4 (N2.17) with W52b reverted to the wild-type L52b; PDB 2X6M); Kabat numbering
B14: N2.17 reversion mutant S100f (VHH)
VHH: B1 VHH with L54W, A57V, F101S, S109T
notes: as the VHH chain of m4 (N2.17) with F100f reverted to the wild-type S100f; PDB 2X6M); Kabat numbering; also called reversion mutation S100f
B15: N2.12 reversion mutant L52b (VHH)
VHH: B1 VHH with A49G, G55R, A57I, F101S, S109T
notes: as the VHH chain of m3 (N2.12) with W52b reverted to the wild-type L52b; PDB 2X6M); Kabat numbering
B16: N2.16 VHH (VHH)
VHH: B1 VHH with A49G, L54W, G55S, A57V, F101S, S109T, S111Y
notes: PDB 2X6M) with mutations in CDR2 and CDR3; One of the 17 unique variants of the enriched library
B17: N2.5 VHH (VHH)
VHH: B1 VHH with G55S, A57V, F101S, S109T, S111F, N112S
notes: PDB 2X6M) with mutations in CDR2 and CDR3; One of the 17 unique variants of the enriched library (1-6 mutations in CDR2 and CDR3)
B18: N2.12 reversion mutant F96 (VHH)
VHH: B1 VHH with A49G, L54W, G55R, A57I, S109T
notes: as the VHH chain of m3 (N2.12) with S96 reverted to the wild-type F96; PDB 2X6M); Kabat numbering; also called reversion mutation (F96)
B19: N2.12 reversion mutant G53 (VHH)
VHH: B1 VHH with A49G, L54W, A57I, F101S, S109T
notes: as the VHH chain of m3 (N2.12) with R53 reverted to the wild-type G53; PDB 2X6M); Kabat numbering
B20: N2.17 reversion mutant F96 (VHH)
VHH: B1 VHH with L54W, A57V, S109T, S111F
notes: as the VHH chain of m4 (N2.17) with S96 reverted to the wild-type F96; PDB 2X6M); Kabat numbering
B21: N2.12 reversion mutant S100d (VHH)
VHH: B1 VHH with A49G, L54W, G55R, A57I, F101S
notes: as the VHH chain of m3 (N2.12) with T100d reverted to the wild-type S100d; PDB 2X6M); Kabat numbering
B22: N2.17 VHH (VHH)
VHH: B1 VHH with L54W, A57V, F101S, S109T, S111F
notes: PDB 2X6M) with four CDR mutations; Kabat numbering; Selected from the natural diversity library by yeast display; also called N2.17 variant; not shown: His6, C-terminal, kept
B23: N2.12 VHH (VHH)
VHH: B1 VHH with A49G, L54W, G55R, A57I, F101S, S109T
notes: PDB 2X6M) with six CDR mutations; Kabat numbering; Selected from the natural diversity library by yeast display; also called N2.12 variant; not shown: His6, C-terminal, kept
B24: N2.17 reversion mutant S100d (VHH)
VHH: B1 VHH with L54W, A57V, F101S, S111F
notes: as the VHH chain of m4 (N2.17) with T100d reverted to the wild-type S100d; PDB 2X6M); Kabat numbering
B25: N2.12 reversion mutant A49 (VHH)
VHH: B1 VHH with L54W, G55R, A57I, F101S, S109T
notes: as the VHH chain of m3 (N2.12) with G49 reverted to the wild-type A49; PDB 2X6M); Kabat numbering; also called N2.12 with A49

Molecular target: T1, TAMRA-labeled α-synuclein peptide
Experiment: fluorescence polarisation; alanine scan: single VHH concentrations (44, 133 and 400 nM) with 2 nM TAMRA-labeled α-synuclein peptide; background-subtracted signal of the mutant divided by that of wild type
Conditions: both partners purified

Row | binding relative to wild type (normalised polarisation signal) [%] | Binder
1 | > 50 | B1
2 | > 50 | B2
3 | > 50 | B3
4 | > 50 | B4
5 | > 50 | B5
6 | > 50 | B6
7 | > 50 | B7
8 | > 50 | B8
9 | > 50 | B9
10 | > 50 | B10
11 | > 50 | B11

Molecular target: T1, TAMRA-labeled α-synuclein peptide
Experiment: fluorescence polarisation; VHH titrated (0.8 nM-1.6 µM) against 2 nM TAMRA-labeled α-synuclein peptide; PBS with 0.001% BSA and 0.001% Tween 20; room temperature, 3 h; fit that accounts for antibody not in excess of antigen
Conditions: both partners purified

Row | Kd [nM] | binding result | fold affinity enhancement relative to wild type [fold] | Binder
12 | 57.6 | – | – | B12
13 | – | binds | – | B13
14 | – | binds | – | B14
15 | – | binds | – | B15
16 | – | binds | – | B16
17 | – | binds | – | B17
18 | – | binds | – | B18
19 | – | binds | – | B19
20 | – | binds | – | B20
21 | – | binds | – | B21
22 | 13.2 | – | – | B22
23 | 7.6 | – | – | B23
24 | – | binds | – | B24
25 | – | – | > 7 | B25
